Assay results reported in PMC10391610, “Survivin prevents the polycomb repressor complex 2 from methylating histone 3 lysine 27” (iScience, 2023).

B1: EZH2_(172-211) peptide (peptide)
peptide: VELVNALGQYNDDDDDDDGDDPEEREEKQKDLEDHRDDKE
notes: source: synthetic peptide, bought: Biomatik (purified to 95%)
B2: SUZ12_(573-597) peptide (peptide)
peptide: PLRPQEMEVDSEDEKDPEWLREKTI
notes: suppressor of zeste 12 (SUZ12), residues 573-597; source: synthetic peptide, bought: Biomatik (purified to 95%)
B3: JARID2_(170-194) peptide (peptide)
peptide: PNSMVYFGSSQDEEEVEEEDDETED
notes: as for B1
B4: EED_(128-152) peptide (peptide)
peptide: SQGEIRLLQSYVDADADENFYTCAW
notes: embryonic ectoderm development (EED), residues 128-152; source: synthetic peptide, bought: Biomatik (purified to 95%)

These binders were tested against T1, survivin (His-tagged, from pHIS8) (human, UniProt O15392 1-142) (assay: NMR titration; peptides titrated into [U-15N]-survivin (0.3 mM); 2D [15N,1H]-SOFAST-HMQC; NMR buffer (50 mM Tris, 150 mM NaCl, 1 mM DTT, pH 7.5), 298 K; global signal attenuation fitted with a logistic function (critical peptide concentration, cpc)). Conditions: both partners purified.
T1 construct: survivin, human, residues 1-142 (142 amino acids), called the full-length construct; plasmid pHis8-survivin obtained from the Verdecia lab (doi 10.1038/76838); The tag is detected by the anti-His antibody on the microarray; For NMR the protein was uniformly 15N labelled (M9 medium); For MST one copy was labelled with the GREEN-MALEIMIDE (cysteine reactive) dye; also called survivin_(1-142); …
T1 sequence (O15392 whole entry, the tested form may be a part): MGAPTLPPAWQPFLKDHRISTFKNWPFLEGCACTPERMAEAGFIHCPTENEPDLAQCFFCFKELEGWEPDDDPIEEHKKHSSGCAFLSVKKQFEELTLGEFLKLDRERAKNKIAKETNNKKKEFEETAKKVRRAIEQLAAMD

First: B1
Second: B2
The “NMR cpc (critical peptide concentration)” value of the first is 3.1-fold lower: 0.0021 µM for the first, 0.0066 µM for the second.

B3 and B4 are within 1.5-fold of each other in “NMR cpc (critical peptide concentration)” value: 0.0085 µM for the first, 0.0076 µM for the second.
